Data reported in patent US20170349667A1 (ARGEN X B V, published 2017).
Numbering of substitutions follows the chain as printed.

Tests used:
[1] = molecular target: T1, Decoy c-Met (extracellular domain of human c-Met) (human, Glycoprotein. In cells it is cleaved by furin after residue 307 into disulfide-linked alpha and beta parts; written here as one chain.); assay: binding ELISA, human c-Met (Decoy)
T1 construct: construct after Basilico et al. 2008; also called Decoy Met; monomeric Decoy Met
T1 chain: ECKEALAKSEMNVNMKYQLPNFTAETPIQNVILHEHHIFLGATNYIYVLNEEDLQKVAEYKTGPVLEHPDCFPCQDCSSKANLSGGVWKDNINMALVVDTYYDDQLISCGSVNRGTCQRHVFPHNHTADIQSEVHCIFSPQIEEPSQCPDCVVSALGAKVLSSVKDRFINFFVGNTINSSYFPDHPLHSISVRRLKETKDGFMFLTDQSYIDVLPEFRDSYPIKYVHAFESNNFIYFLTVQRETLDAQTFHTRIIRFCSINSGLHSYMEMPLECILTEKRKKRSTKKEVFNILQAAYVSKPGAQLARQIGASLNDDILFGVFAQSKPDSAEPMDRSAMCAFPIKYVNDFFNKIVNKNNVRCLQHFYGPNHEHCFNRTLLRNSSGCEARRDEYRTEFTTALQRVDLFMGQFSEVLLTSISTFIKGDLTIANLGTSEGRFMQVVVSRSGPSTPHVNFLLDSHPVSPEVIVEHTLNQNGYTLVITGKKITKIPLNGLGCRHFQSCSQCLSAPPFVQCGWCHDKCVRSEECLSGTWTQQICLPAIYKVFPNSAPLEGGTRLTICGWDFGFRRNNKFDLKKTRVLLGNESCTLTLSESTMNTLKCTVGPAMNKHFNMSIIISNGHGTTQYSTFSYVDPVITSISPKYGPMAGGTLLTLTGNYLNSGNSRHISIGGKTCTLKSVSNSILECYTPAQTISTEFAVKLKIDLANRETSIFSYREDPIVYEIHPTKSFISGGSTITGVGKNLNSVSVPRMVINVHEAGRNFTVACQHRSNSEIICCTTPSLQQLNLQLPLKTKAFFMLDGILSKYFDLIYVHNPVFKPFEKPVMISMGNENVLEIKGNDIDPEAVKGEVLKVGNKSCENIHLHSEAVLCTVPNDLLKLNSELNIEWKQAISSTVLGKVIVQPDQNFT

[2] = molecular target: T2, human c-Met ECD (aa 25-932) with His tag (human, Glycoprotein. Furin cleavage after residue 307 gives disulfide-linked alpha and beta parts; written here as one chain.); assay: ELISA: 200 ng of recombinant c-Met ECD protein coated, mAb 1 h, HRP goat anti-human antibody, TMB, OD 620 nm
T2 construct: also called human c-Met (WT)
T2 chain: T1 chain
Method: 200 ng of the different chimeric recombinant cMet proteins were immobilized on maxisorb plates overnight at 4° C. After washing with PBS, the plates were blocked with 0.1% casein for 2 h at RT, before the mAbs were added and allowed to bind to the c-Met for 1 h at RT. After washing, HRP-conjugated goat anti-human antibody (diluted 1/5000, Jackson Labs) was added and incubated for 1 h at RT before additional washing and addition of TMB. The optical density at 620 nm was read and the values were represented in a graph against the concentration of mAbs.

[3] = molecular target: llama-human c-Met chimera LS1 (aa1-98) (Llama glama; human); assay: ELISA, mAb coated at 2 µg/ml, chimera added, streptavidin-HRP
Excerpt: (§1) An ELISA was run to investigate the binding of the mAbs to the different chimeras.

[4] = molecular target: T3, llama-human c-Met chimera L19 (aa572-909) (human; Llama glama); assay: as above
T3 construct: label probably LI9
Excerpt: as §1

[5] = molecular target: T4, llama-human c-Met chimera L18 (aa540-909) (human; Llama glama); assay: as above
T4 construct: label probably LI8
Excerpt: as §1

[6] = molecular target: llama-human c-Met chimera LP6 (aa497-909) (human; Llama glama); assay: as above
Excerpt: as §1

[7] = molecular target: llama-human c-Met chimera LP7*(aa523-909), T737I (human; Llama glama); assay: as above
Excerpt: as §1

[8] = molecular target: T5, llama-human c-Met chimera L111 (aa634-909) (human; Llama glama); assay: as above
T5 construct: label probably LI11
Excerpt: as §1

[9] = molecular target: T6, llama-human c-Met chimera L110 (aa608-909) (human; Llama glama); assay: as above
T6 construct: label probably LI10
Excerpt: as §1

[10] = molecular target: T7, HMet (human c-Met, control of Table 18) (human); assay: ELISA, mAb coated at 2 µg/ml, c-Met added, streptavidin-HRP
T7 chain: T1 chain
Excerpt: as §1

[11] = molecular target: human c-Met on cells (MKN-45, A549, HPAF, BxPC3) (human, UniProt P08581 25-1390); assay: cell-based or functional assay
[12] = molecular target: T8, recombinant dimeric c-Met (R&D systems, 358-MT/CF) (human, UniProt P08581 25-932); assay: competition ELISA: recombinant dimeric c-Met captured on the plate, mAb dilutions, then 25 ng/ml N-terminally biotinylated HGF as competitor, strep-HRP, 620 nm; % competition against the controls
T8 construct: bought protein; also called recombinant c-Met; Fc-Met; not shown: C-terminal Fc portion (captured with anti-human Fc) and a His tag (captured with anti-His)
Method: Competition with N-terminally biotinylated HGF for binding to immobilized c-Met was performed using an ELISA-based competition assay. Five μg/ml mouse anti-His antibodies (Serotech) was immobilized on a maxisorb plate and, after blocking with 1% casein in PBS for 2 h, 100 ng/ml recombinant dimeric c-Met was added and incubated for 1 h at room temperature. After washing, dilutions of the antibodies were added and allowed to bind to the captured c-Met for 30 minutes, before 25 ng/ml N-terminally biotinylated HGF (R&D systems, 294-HGN/CF) was added. Biotinylated HGF was incubated at room temperature for 1 h before washing. Horseradish-conjugated streptavidin (strep-HRP) was added and incubated for an additional hour. TMB was added and the plate read at 620 nm. An isotype control (hIgG1λ) was included as a control as well as murine 5D5 antibody. Competition was expressed as percentage competition as compared to the controls (strep-HRP only or hIgG1λ) and plotted against the concentration of antibodies. An IC₅₀ was calculated using GraphPad Prism (Table 10). Antibodies 13E6 and 20A11 only displaced HGF partially (about 50%), which may be related to the epitope these two mAbs recognize on the c-Met.

[13] = molecular target: T9, llama-human c-Met chimera LS2 (aa1-199) (Llama glama; human); assay: ELISA, mAb coated at 2 µg/ml, chimera added, streptavidin-HRP
T9 construct: as LS1
Excerpt: as §1

[14] = molecular target: T10, llama-human c-Met chimera LS4 (aa1-348) (Llama glama; human); assay: as above
T10 construct: as LS1
Excerpt: as §1

[15] = molecular target: T11, llama-human c-Met chimera LS3 (aa1-287) (Llama glama; human); assay: as above
T11 construct: as LS1
Excerpt: as §1

[16] = molecular target: T12, llama-human c-Met chimera LS5 (aa1-448) (Llama glama; human); assay: as above
T12 construct: as LS1
Excerpt: as §1

B1: 20A11 mAb (antibody, human IgG1, V domains shown)
VH: QVQLVESGGGLVQPGGSLRLSCAASGFTFDDYAMSWVRQAPGKGLEWVSAISWNGSSTYYAESMKGRFTISRDNAKNTLYLQMNSLKSEDTAVYYCAKDLIGSHDYWGQGTQVTVSS
VL: QAVLTQPPSVSGTLGKTLTISCAGTSSDVGYGNYVSWYQQLPGTAPKLLIYAVSTRASGIPDRFSGSKSGNTASLTISGLQSEDEADYYCASYRSSNNYAFGAGTKLTVL
notes: human IgG1 constant domains and human C lambda
Work on B1 yielded an EC50 [1] of 4.3 nM.

B2: 36C4 mAb (antibody, human IgG1, V domains shown)
VH: QVQLVESGPGLVKPSQTLSLTCAVSGGSITTNYYYWSWIRQSPGKGLEWMGVIAYDGSTDYSPSLKSRTSISRDTSKNQFSLQLSSVTPEDTAVYYCARDVRVIATGWATANALDAWGQGTLVTVSS
VL: QSVLTQPPSVSGSPGKTVTISCAGTSSDVGYGNYVSWYQQLPGTAPKLLIFAVSYRASGIPDRFSGSKSGNTAFLTISGLQSEDEADYYCASYRSSNNAAVFGGGTHLTVL
notes: as for B1
For B2, the “EC50 (read off the curve)” value [2] was roughly 0.6 nM, the EC50 [3] was 0.068 mg/L and the EC50 [4] was 0.047 mg/L. The EC50 [5] was 0.047 mg/L, the EC50 [6] was 0.05 mg/L and the EC50 [7] was 0.055 mg/L. It also gave an EC50 [8] of 0.045 mg/L, an EC50 [9] of 0.047 mg/L and an EC50 [1] of 0.13 nM. For the same binder, the EC50 [10] was 0.06 mg/L and the “antibody-induced proliferation of BxPC3 cells (agonism)” value (from here on “antibody-induced proliferation”) [11] was < 20 % of the proliferation obtained with 75 ng/ml HGF.

B3: murine 5D5 antibody (antibody, V domains shown)
VH: QVQLQQSGPELVRPGASVKMSCRASGYTFTSYWLHWVKQRPGQGLEWIGMIDPSNSDTRFNPNFKDKATLNVDRSSNTAYMLLSSLTSADSAVYYCATYGSYVSPLDYWGQGTSVTVSS
VL: DIMMSQSPSSLTVSVGEKVTVSCKSSQSLLYTSSQKNYLAWYQQKPGQSPKLLIYWASTRESGVPDRFTGSGSGTDFTLTITSVKADDLAVYYCQQYYAYPWTFGGGTKLEIK
For B3, the “IC50 (read off the curve)” value [12] was roughly 0.7 nM.

B4: 40B8 mAb (antibody, human IgG1, V domains shown)
VH: EVQLVQPGAELRNPGASVKVSCKASGYTFTNYVIDWVRQAPGQGLEWMGRIDPENGGTRYAQKFQGRVTFTADTSTSTAYVELSNLRSEDTAVYYCARLEDYELAYDYWGQGTQVTVSS
VL: DIVMTQTPSSVTASAGEKVTINCKSSQSVLLSSNQKNYLAWYQQRLGQSPRLLIYWASTRESGVPDRFSGSGSTTDFTLTISSFQPEDAAVYYCQQGVSFPLTFGQGTKVELK
notes: human IgG1 constant domains and human C kappa
B4 was tested, and the “IC50 (read off the curve)” value [12] was roughly 0.07 nM, the EC50 [1] was 0.14 nM and the “antibody-induced proliferation” value [11] was < 20 % of the proliferation obtained with 75 ng/ml HGF.

B5: 38H10 mAb (antibody, human IgG1, V domains shown)
VH: EVQLVQPGVELRNPGASVKVSCKASGYIFTMNSIDWVRQAPGQGLEWMGRIDPEDGGTKYAQKFQGRVTFTADTSTSTAYVELNSLRSEDTAVYYCARVDDYYLGYDYWGQGTQVTVSS
VL: EIVMTQSPSSVTASAGEKVTINCKSSQSVLWRSNQKNYLAWYQQRLGQSPRLLISWASIRESGVPDRFSGSGSTTDFTLTISSFQPEDAAVYYCQQGYSFPYTFGSGTRLEIK
notes: as for B4
For B5, the EC50 [1] was 0.19 nM and the “antibody-induced proliferation” value [11] was < 20 % of the proliferation obtained with 75 ng/ml HGF.

B6: 48A2 mAb (antibody, human IgG1, V domains shown)
VH: B5 VH
VL: DIVMTQTPTSVTASAGDKVTINCKSSQSVLFSSNQKNYLAWYQQRLGQSPRLLIYWASIRESGVPDRFSGSGSATDFTLTISNFQPEDAAVYYCQQGYSFPYSFGSGTRLEIR
notes: VL-shuffled variant of 38H10; human IgG1 and C kappa
Binder B6 has an EC50 [3] of 0.031 mg/L, an EC50 [4] greater than 0.04 mg/L and an EC50 [13] of 0.034 mg/L. The EC50 [5] was greater than 0.04 mg/L, the EC50 [14] was 0.07 mg/L and the EC50 [15] was 0.05 mg/L. For the same binder, the EC50 [16] was 0.05 mg/L, the EC50 [8] was 0.042 mg/L and the EC50 [9] was greater than 0.04 mg/L.

B7: 13E6 mAb (antibody, human IgG1, V domains shown)
VH: QVQLQESGGDLVQPGGSLRLSCAASGFTFDDYVMNWVRQAPGKGLEWISAINWNGGSTYYAESMKGRFTISRDNAKNTLYLQMYSLQSDDTAVYYCVKDTVVSGNGYWGQGTQVTVSS
VL: QSVLTQPPSVSGTLGKTVTISCAGTSSDIGDYNYVSWYQQLPGTAPKLLIYDVNKRASGIPDRFSGSKSGNTASLSISGLQSEDEADYYCASYRSRNDYAFGGGTKLTVL
notes: as for B1
For B7, the “EC50 (read off the curve)” value [2] was roughly 1 nM and the EC50 [1] was 0.19 nM.

B8: 12G4 mAb (antibody, human IgG1, V domains shown)
VH: QLQLVESGGGMAQPGGSLKLSCAASGFTFDDYAMTWVRQAPGKGLEWLSTISWNDINTYYAESMKDRFTISRDNAKNTLYLQMNSLESEDTAVYYCAKRRDNYYGTSGEYDYWGQGTQVTVSS
VL: B7 VL with V3A, D31N, D52E, A57P, R96S, D98N, Y99V, A100V
notes: llama VH/V lambda fused to human IgG1 constant domains and human C lambda
For B8, the EC50 [1] was 0.42 nM.
